Measured values published in patent publication US20050282739A1.
Square brackets hold non-standard residues; d marks the D form. pGlu = O=C1CC[C@@H](C(=O)O)N1; Nle = CCCC[C@H](N)C(=O)O

target: bombesin receptor of rat brain membranes (rat); assay: 125I-Bombesin competition, rat brain membranes

% Inhibition	Binder
91%	XQRLGNQWAVGHLCX (Pyr 1; Nle 15; C-terminal amide; Re complexed at Cys 14) [metallopeptide 6-2]
70%	[pGlu]QRLGNQWAVGCHL[Nle]-NH2 (also: Re(V)=O N3S1 chelate at Cys12 (from ReOCl3(PPh3)2)) [metallopeptide 6-4]
62%	[pGlu]QRLGNQWCAVGHL[Nle]-NH2 (also: Re(V)=O N3S1 chelate at Cys9 (from ReOCl3(PPh3)2)) [metallopeptide 6-7]
99%	Ac-AQCRLGNQWAVGHL[Nle]-NH2 (also: Re(V)=O N3S1 chelate at Cys3 (from ReOCl3(PPh3)2)) [metallopeptide 6-13]
71%	[pGlu]QRLGNQWAVGHCL[Nle]-NH2 (also: Re(V)=O N3S1 chelate at Cys13 (from ReOCl3(PPh3)2)) [metallopeptide 6-3]
-2%	XQRLGNQCAVGHLX (Pyr 1; Nle 14; C-terminal amide; Re complexed at Cys 8) [metallopeptide 7-7]
93%	[pGlu]QRLGCNQWAVGHL[Nle]-NH2 (also: oxorhenium(V) N3S1 chelate at Cys6) [metallopeptide 6-10]
83%	[pGlu]QRLGNQWACVGHL[Nle]-NH2 (also: Re(V)=O N3S1 chelate at Cys10 (from ReOCl3(PPh3)2)) [metallopeptide 6-6]
82%	XQRLGNQWAVGCLX (Pyr 1; Nle 14; C-terminal amide; Re complexed at Cys 12) [metallopeptide 7-3]
67%	[pGlu]QRLGNQWAVCGHL[Nle]-NH2 (also: Re(V)=O N3S1 chelate at Cys11 (from ReOCl3(PPh3)2)) [metallopeptide 6-5]
73%	XQRLGNQWAVGHLC (Pyr 1; C-terminal amide; Re complexed at Cys 14) [metallopeptide 7-1]
84%	XQRLGNCWAVGHLX (Pyr 1; Nle 14; C-terminal amide; Re complexed at Cys 7) [metallopeptide 7-8]
91%	[pGlu]QRLGNCQWAVGHL[Nle]-NH2 (also: Re(V)=O N3S1 chelate at Cys7 (from ReOCl3(PPh3)2)) [metallopeptide 6-9]
75%	[pGlu]QRLGNQCWAVGHL[Nle]-NH2 (also: Re(V)=O N3S1 chelate at Cys8 (from ReOCl3(PPh3)2)) [metallopeptide 6-8]
61%	XQRLGNQWACGHLX (Pyr 1; Nle 14; C-terminal amide; Re complexed at Cys 10) [metallopeptide 7-5]
81%	XQRLGNQWAVCHLX (Pyr 1; Nle 14; C-terminal amide; Re complexed at Cys 11) [metallopeptide 7-4]
97%	[pGlu]QRCLGNQWAVGHL[Nle]-NH2 (also: Re(V)=O N3S1 chelate at Cys4 (from ReOCl3(PPh3)2)) [metallopeptide 6-12]
91%	XQRLGNQWCVGHLX (Pyr 1; Nle 14; C-terminal amide; Re complexed at Cys 9) [metallopeptide 7-6]
106%	XQRLGNQWAVGHLM (not fully specified; pyroglutamic acid (Pyr) 1; C-terminal amide) [bombesin parent polypeptide Pyr-Gln-Arg-Leu-Gly-Asn-Gln-Trp-Ala-Val-Gly-His-Leu-Met-NH2]
66%	XQRLGNQWAVGHCX (Pyr 1; Nle 14; C-terminal amide; Re complexed at Cys 13) [metallopeptide 7-2]
82%	[pGlu]QRLGNQWAVGHL[Nle]C-NH2 (also: oxorhenium(V) N3S1 chelate at Cys15) [metallopeptide 6-1]
